Target: Akt1/PKB alpha recombinant enzyme (Upstate Biotechnology)
Assay: cell-based or functional assay

Sequence of Akt1/PKB alpha recombinant enzyme (Upstate Biotechnology) (P31749 whole entry): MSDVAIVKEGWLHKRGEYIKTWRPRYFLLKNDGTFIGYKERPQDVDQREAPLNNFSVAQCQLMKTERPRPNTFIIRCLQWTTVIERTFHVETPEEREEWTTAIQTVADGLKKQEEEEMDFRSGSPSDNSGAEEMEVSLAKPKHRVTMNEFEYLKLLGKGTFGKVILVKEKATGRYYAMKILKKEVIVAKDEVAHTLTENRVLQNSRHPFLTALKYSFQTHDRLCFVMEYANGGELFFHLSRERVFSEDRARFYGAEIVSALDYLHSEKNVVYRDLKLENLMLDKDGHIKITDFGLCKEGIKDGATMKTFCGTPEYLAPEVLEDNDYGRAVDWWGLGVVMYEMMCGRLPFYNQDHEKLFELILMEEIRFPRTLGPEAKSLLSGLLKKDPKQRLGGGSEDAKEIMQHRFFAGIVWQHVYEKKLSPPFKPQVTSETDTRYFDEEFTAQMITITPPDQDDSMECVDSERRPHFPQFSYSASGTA

decrease in luminescence (luciferase activity) with versus without Akt1/PKB: 50%
B1: CPM firefly luciferase serine/threonine kinase biosensor, construct pBFB340: Met-(Luc2.0 A-544)-(linker X)-…-(…)-(Rad53p FHA2 domain)-(linker Y)-(Luc2.0 4-B) (protein, part only; not given: luciferase fragments and linkers, part only)
chain, part: RKRDRLGTLGIGGSSGGGSGGGGSGGGNGRFLTLKPLPDSIIQESLEIQQGVNPFFIGRSEDCNCKIEDNRLSRVHCFIFKKRHAVGKSMYESPAQGLDDIWYCHTGTNVSYLNNNRMIQGTKFLLQDGDEIKIIWDKNNKFVIGFKVEINDTTGLFNEGLGMLQEQRVVLKQTAEEKDLVKKL
